Results taken from patent US20250122303A1 (HUMMINGBIRD BIOSCIENCE PTE, published 2025).

Assays:
moFcRn = target: T1, moFcRn (mouse, UniProt Q61559); assay: Bio-Layer Interferometry (determined as described in Example 7)
T1 construct: recombinant; also called mouse FcRn; gene FCGRT (so in the source)
T1 sequence (receptor, looked up): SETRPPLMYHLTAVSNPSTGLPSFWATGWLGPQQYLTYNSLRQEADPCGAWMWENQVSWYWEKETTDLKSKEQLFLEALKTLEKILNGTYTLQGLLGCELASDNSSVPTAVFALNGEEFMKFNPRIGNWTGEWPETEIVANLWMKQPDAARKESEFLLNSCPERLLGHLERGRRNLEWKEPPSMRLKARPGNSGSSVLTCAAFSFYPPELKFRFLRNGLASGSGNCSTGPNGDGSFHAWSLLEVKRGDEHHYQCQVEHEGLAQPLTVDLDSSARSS
T1 sequence (looked up): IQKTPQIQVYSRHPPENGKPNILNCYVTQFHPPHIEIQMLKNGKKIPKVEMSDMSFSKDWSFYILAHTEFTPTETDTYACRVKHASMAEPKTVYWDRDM

moFcgRIV = target: T2, moFcgRIV; assay: as above
T2 construct: also called CD16-2; mFcγRIV
T2 chain: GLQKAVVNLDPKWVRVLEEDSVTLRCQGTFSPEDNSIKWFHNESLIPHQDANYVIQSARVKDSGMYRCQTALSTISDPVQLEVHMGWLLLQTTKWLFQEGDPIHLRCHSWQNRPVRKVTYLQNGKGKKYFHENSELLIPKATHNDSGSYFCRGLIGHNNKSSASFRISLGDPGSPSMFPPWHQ

human HER3 polypeptide [1] = target: T3, human HER3 polypeptide (human, UniProt P21860 20-643); assay: ELISA; plate coated with target polypeptide, antibody serially diluted, absorbance 450 nm
T3 construct: Recombinant antigen of the ELISAs; also called human HER3 (Sino Biological Inc.); human antigen HER3
Protocol: The antibodies were analysed for their ability to bind to human HER3 polypeptide as well as human HER1 (EGFR) and human HER2 (Sino Biological Inc., China).
ELISAs were carried out according to standard protocols. Plates were coated with 0.1 μg/ml of target polypeptide in phosphate-buffered saline (PBS) for 16 h at 4° C. After blocking for 1 h with 1% BSA in Tris buffer saline (TBS) at room temperature, the anti-HER3 antibody was serially diluted with the highest concentration being 10 μg/ml, and added to the plate. Post 1 h incubation at room temperature, plates were washed three times with TBS containing 0.05% Tween 20 (TBS-T) and were then incubated with a HRP-conjugated anti-His antibody (Life Technologies, Inc., USA) for 1 h at room temperature. After washing, plates were developed with colorimetric detection substrate 3,3′,5,5′-tetramethylbenzidine (Turbo-TMB; Pierce, USA) for 10 min. The reaction was stopped with 2M H₂SO₄, and OD was measured at 450 nm.

His-tagged human HER3 [2] = target: T4, His-tagged human HER3 (human, UniProt P21860 20-643); assay: BLI (Octet QK384), antibody captured on AHC sensors, His-tagged human HER3 in solution, without NRG1
T4 construct: Antigen of the BLI experiments and of the HER2-Fc dimerisation ELISA; also called HER3 His; not shown: His tag
Protocol: Binding of anti-HER3 antibodies to human HER3 was evaluated by BLI. Briefly, anti-Human IgG Capture (AHC) sensors (ForteBio) were loaded with anti-HER3 IgG antibodies (25 nM). Kinetic measurements were performed in absence or presence of NRG1. NRG1 was used at 1:1 molar ratio with HER3 wherein the complex was allowed to form at RT for 2 h. […] All measurements were performed at 25° C. with agitation at 1000 rpm. Sensorgrams were referenced for buffer effects and then analyzed using the Octet QK384-software (ForteBio). Kinetic responses were globally fitted using a one-site binding model to obtain values for association (Kₒₙ), dissociation (Koff) rate constants and the equilibrium dissociation constant (KD).

His-tagged human HER3 [3] = target: T4, His-tagged human HER3; assay: BLI (Octet QK384), antibody on anti-human IgG capture tips, His-tagged human HER3 in solution, global 1:1 fit, R^2 = 0.9902, kon Error 1.12E+04; Response 0.1471 / 0.2882 / 0.3968 / 0.5458 at 35 / 69 / 139 / 278 nM
Protocol: The anti-HER3 antibody clones in IgG1 format were analysed for binding affinity to human HER3. Bio-Layer Interferometry (BLI) experiments were performed using the Octet QK384 system (ForteBio). anti-Human IgG Capture (AHC) Octet sensor tips (Pall ForteBio, USA) were used to anti-HER3 antibodies (25 nM). All measurements were performed at 25° C. with agitation at 1000 rpm. […] Sensograms were referenced for buffer effects and then fitted using the Octet QK384 user software (Pall ForteBio, USA). Kinetic responses were subjected to a global fitting using a one site binding model to obtain values for association (Kₒₙ), dissociation (Koff) rate constants and the equilibrium dissociation constant (KD). Only curves that could be reliably fitted with the software (R²>0.90) were included in the analysis.

hCD16a = target: T5, hCD16a (human, UniProt P08637 17-208, limits assumed); assay: BLI; day 0 of storage at 40 °C/80% RH
T5 construct: also called human CD16a

human HER3 polypeptide [4] = target: T3, human HER3 polypeptide; assay: BLI; day 0 of storage at 40 °C/80% RH

B1: 10D1F.FcA (anti-HER3 clone 10D1_c89 IgG1) (antibody)
heavy: not shown
light: DIQMTQSPSSVSASVGDRVTITCKASQIVGSNVAWYQQKPGKAPEPLIYSASYLYSGVPSRFSGSGSGTDFTLTISSLQPEDFATYYCQQYSSHPLTFGQGTKLEIKRTVAAPSVFIFPPSDEQLKSGTASVVCLLNNFYPREAKVQWKVDNALQSGNSQESVTEQDSKDSTYSLSSTLTLSKADYEKHKVYACEVTHQGLSSPVTKSFNRGEC
notes: also called 10D1F.A; HMBD-001
Q: With B1 as the binder, how does the Kd (moFcRn) read?
A: 14.6 nM

Q: What about the Kd (moFcgRIV) of the same binder?
A: 1810 nM

Q: What about the EC50 (human HER3 polypeptide [1]) of the same binder?
A: 0.0144 nM

Q: And the Kd (His-tagged human HER3 [2])?
A: < 0.001 nM

Q: And the koff (His-tagged human HER3 [2])?
A: < 1e-07 s⁻¹

Q: And the kon (His-tagged human HER3 [2])?
A: 199000 M⁻¹ s⁻¹

Q: And the kon (His-tagged human HER3 [3])?
A: 297000 M⁻¹ s⁻¹

Q: What about the Kd (hCD16a) of the same binder?
A: 294 nM

Q: What about the Kd (human HER3 polypeptide [4]) of the same binder?
A: < 0.001 nM
